B1: WNb 20 (VHH)
VHH: QVQLQESGGGLVQPGGSLRLSCAASGFTLEHYAIGWFRQAPGKEREGVSCISNSGGRTNYADSVKGRFTISRDNAKNTVYLQMNSLKPEDTAVYYCAADLGVVERLCPAHPGSYEYDYWGQGTQVTVSS
B2: WNb 31 (VHH)
VHH: QVQLQESGGGLVQAGDSLRLSCTASGRALNTYTVAWWRQAPGNEREFVASIIWSSGAAWYADAVKGRFTISRDNAKNTVDLQMTSLKPEETAIYFCAVGQWEGRDTWYTSYDYWGQGTQVTVSS
B3: WNb 30 (VHH)
VHH: QVQLQESGGGLVQPGGSLRLSCVASGITLDYYAIGWFRQAPGKEREGVSCLSSSDGSTYYADSVKGRFTMSRDNVKNTVYLQMNSLKPEDTAVYYCATNPLTVVDGTFHLTCLDEYDYGGQGTQVTVSS
B4: WNb 59 (VHH)
VHH: QVQLQESGGGLVQPGGSLRLSCAASGGTLDYYAIGWFRQAPGKEREGVSCIMSSGGPTYFAGSVKGRFTISRDNAKNTVYLQMNSLKPEDTAVYYCAADPHGFDCSPSGGMDYWGKGTQVTVSS
B5: WNb 32 (VHH)
VHH: QVQLQESGGGLVQAGGSLGLSCAASGRPLNSYSMAWFRQAPGKEREFVASIGRSDGLSKYNDFVKDRFTLSRGNAKTTLLLQMNNLKVEDTAVYYCSAALWDGWATDINEYDYRGQGTQVTVSS
B6: WNb 1 (VHH)
VHH: QVQLQESGGGLVQAGGSLRLSCAASGRTFDRYAMGWFRQVPGKGLEWVSGIYSDGYTYYADSVKGRFTISRDNAKNTVYLQMNSLKPEDTAVYYCAADRMDGSSWPERDFGSWGQGTQVTVSS
B7: WNb 69 (VHH)
VHH: QVQLQESGGGLVQPGGSLRLSCAASGFTLDYYGIGWFRQAPGKEREGVSCISASGTSTKYVNSVKGRFTISRDNAKNTVYLQMNSLKPEDTAVYYCAAISGSYYYTSLHPVEYDSWGQGTQVTVSS
B8: WNb 46 (VHH)
VHH: QVQLQESGGGQVQPGGSLRLSCAASGFTLDYYGIGWFRQAPGQEREGVSSISTSGTSTNYANSVKGRFTISRDNAKNTVYLQMNSLKPEDTAVYYCAAISGSYYYTSLHPVEYDYWGQGTQVTVSS
B9: WNb 49 (VHH)
VHH: QVQLQESGGGLVQPGGSLRLSCAASGFTLDYYGIGWFRQAPGKEREGVSGISASGTSTNYADSVKGRFTVSRDNAKNTVYLQMNSLKPEDTAVYYCAAISASYYYTSLHPVEYDSWGQGTQVTVSS
B10: WNb 5 (VHH)
VHH: QVQLQESGGGLVQAGGSLRLSCAASGRTFSRYAIGWFRQAPGKEREGVSCISPSGGSTNYADSVKGRFTISRDNAKNTVYLQMNSLKPEDTAVYYCAASTPSYHYCSGYVSEYDYWGQGTQVTVSS
B11: WNb 70 (VHH)
VHH: QVQLQESGGGLVQPGGSLNISCASNGFTLDFYAIGWFRQAPGKEREGVSCISSSGGSSKYSDSVKGRFTISRDNAKNTVYLQMNSLQPEDTAVYYCAAQMGSSEYCPIFIPGEGMDYWGKGTQVTVSS
B12: WNb 4 (VHH)
VHH: QVQLQESGGGLVQPGGSLRLSCAASGFTLDYYAIGWFRQAPGKEREGVSCISSSGGSTNYADSVKGRFTISRDNAKNTVYLQMNSLQPEDTAVYYCAAQMGSSRYCPIFTPGEGMDYWGKGTQVTVSS
B13: WNb 3 (VHH)
VHH: QVQLQESGGGLVQPGGSLRLSCAASGFTLDYYAIGWFRQAPGKEREGVSCISSSGGSTNYADSVKGRFTISRDNAKNTVYLQMNSLKPEDTAVYYCAAQMGSSRYCPIFIPGEGMDYWGKGTQVTVSS
B14: WNb 62 (VHH)
VHH: QVQLQESGGGLVQAGGSLRLSCTASRRTFSTCVMGWARQVPGKGLEWVSGIYSDGSTYYADSVKGRFTISRDNAKNTVYLQMNSLKPEDTAVYYCNLDGRYENLEDDYWGQGTQVTVSS
B15: WNb 33 (VHH)
VHH: QVQLQESGGGLVQPGGSLRLSCAASGFTFSSYLMGWARQVPGKGLEWVAGIYSDGSTYYADSVKGRFIISRDNAKNTVYLQMNSLKPEDTAVYYCAKDRMEGSTWPERDLGSWGQGTQVTVSS
B16: WNb 68 (VHH)
VHH: QVQLQESGGGLVQPGGSLRLSCAASGFTFSSYLMGWARQVPGKGLEWVAGIYSDGSTHYANSVKGRFTISRDNAKNTVYLQMNSLKPEDTAVYYCAKDRMAGSRWPERDFGFWGQGTQVTVSS
B17: WNb 45 (VHH)
VHH: QVQLQESGGGLVQPGGSLRLSCAASGFTFSSYAMGWFRQVPGKGLEWVSGIYSDGSTYYADSVKGRFTISRDNAKNTVYLQMNSLKPEDTAVYYCAADRMEGSSWPERDFGSWGQGTQVTVSS
B18: WNb 63 (VHH)
VHH: QVQLQESGGGLVQPGGSLRLSCAASGFTFRRYLMGWARQVPGKGLEWVSGIYSDGSTYYADSVKGRFTISRDNAKNTVYLQMNSLKPEDTAVYYCAADRMDGSTWPERDFGSWGQGTQVTVSS
B19: WNb 22 (VHH)
VHH: QVQLQESGGGLVQPGGSLRLSCAASGFTFSSYAMGWARQVPGKGLEWLSGIYSDGSTYYADSVKGRFTISRDNAKNTVYLQMNSLKPEDTAVYYCAKDRMDGSVWPERDFGSWGQGTQVTVSS
B20: WNb 54 (VHH)
VHH: QVQLQESGGGLVQPGGSLRLSCAASRFTFSSYAMGWARQVPGKGLEWVSGIYSDGSTYYADSVKGRFIISRDNAKNTVYLQMNSLKPEDTAVYYCAKDRMEGSVWPERDFGSWGQGTQVTVSS
B21: WNb 52 (VHH)
VHH: QVQLQESGGGLVQPGGSLRLSCAASGFIFSSYAMGWARQVPGKGLEWVSGIYSDGSTYYADSVKGRFTISRDNAKNTVYLQMNSLKPKDTAVYYCAKDRLEGSTWPERDFGSWGQGTQVTVSS
B22: WNb 58 (VHH)
VHH: QVQLQESGGGLVQPGGSLRLSCAASGFTFSSYAMGWFRQVPGKGLEWVSGIYSDGSTYYADSVKGRFTISRDNAKNTVYLQMNSLKPEDTAVYYCAADRMDGSRWPERDFGSWGQGTQVTVSS
B23: WNb 6 (VHH)
VHH: QVQLQESGGGLVQPGGSLRLSCAASGFTFSSYAMGWFRQVPGKGLEWVSGIYSDGSTYYADSVKGRFTISRDNAKNTLYLQMNSLKPEDTAVYYCAKDRLEGSSRPERDFGSWGQGTQVTVSS
B24: WNb 35 (VHH)
VHH: QVQLQESGGGLVQPGGSLRLSCAASGFTFSSYAMGWARQVPGKGLEWVSGIYSDGTTYYADSVKGRFTISRDNAKNTVYLQMNSLKPEDTAVYYCAADRMEGSTWPERDFGSWGQGTQVTVSS
B25: WNb 11 (VHH)
VHH: QVQLQESGGGLVQAGDSLRLSCAASGGTFSSYLMGWARQVPGKGLEWVAGIYSDGSTYYADSVKGRFIISRDNAKNTVYLQMNSLKPEDTAVYYCAKDRMEGSTWPERDFGSWGQGTQVTVSS
B26: WNb 60 (VHH)
VHH: QVQLQESGGGLVQPGGSLRLSCAASGFTFSSYLMGWFRQVPGKGLEWVAGIYSDGSTYYADSVKGRFTISRDNAKNTVYLQMNSLKPEDTAVYYCATDRMDGSSWPERDFGSWGQGTQVTVSS
B27: WNb 8 (VHH)
VHH: QVQLQESGGGLVQPGGSLRLSCAASGFTFSSYAMGWARQVPGKGLEWVSGIYSDGSTYYADSVKGRFTISRDNAKNTVYLQMNSLKPEDTAVYYCAKDRLESSSWPERDFGSWGQGTQVTVSS
B28: WNb 13 (VHH)
VHH: QVQLQESGGGLVQPGGSLRLSCAASGFTFSSYAMGWFRQVPGKGLEWVSGIYSDGSTYYADSVKGRFTISRDNAKNTVYLQMNSLKPEDTAVYYCATDRMAGSRWPERDFGSWGQGTQVTVSS
B29: WNb 14 (VHH)
VHH: QVQLQESGGGLVQPGGSLRLSCAASGFTFSSYAMGWARQVPGKGLEWVSGIYSDGSTYYADSVKGRFIISRDNAKNTVYLQMNSLKPEDTAVYYCAKDRMEGSSWPERDFGSWGQGTQVTVSS
B30: WNb 9 (VHH)
VHH: QVQLQESGGGLVQPGGSLRLSCAASGFTFSSYAMGWARQVPGKGLEWVSGIYSDGSTYYGDSVKGRFTISRDNAKNTVYLQMNSLKPEDTAVYYCAKDRMAGSSWPERDFGSWGQGTQVTVSS
B31: WNb 61 (VHH)
VHH: QVQLQESGGGLVQPGGSLNISCASNGFTLDFYAIGWFRQAPGKEREGVSCISRSGSNINYAESLKGRATISRDNAKNTIYLQMSNLRTEDTAVYYCAATPSGVATAQGPCDLTRWYDNWGQGTQVTVSS

The assay deals with SARS-CoV-2 receptor-binding domain (RBD), wild type (SARS-CoV-2, UniProt P0DTC2, DyLight 488 (NHS ester, about 1.9 dye/protein) in the FRET assay only).
As to B1, the binding result is given as “binds”.

Turning to B2, the binding result is “binds”.

Turning to B3, the binding result was “binds”.

On to B4, for which the binding result was “binds”.

Take B5: the binding result is reported as “binds”.

In the case of B6, the binding result is “binds”.

For the molecule B7, the binding result is “binds”.

Consider B8, for which the binding result is reported as “binds”.

As to B9, the binding result is given as “binds”.

As to B10, the binding result is “binds”.

Turning to B11, the binding result was “binds”.

For B12, the binding result is “binds”.

Regarding B13, the binding result was “binds”.

For B14, the binding result is “binds”.

Consider B15, for which the binding result was “binds”.

For B16, the binding result was “binds”.

With B17, the binding result is “binds”.

Turning to B18, the binding result is on record as “binds”.

Turning to B19, the binding result was “binds”.

With B20, the binding result is recorded as “binds”.

B21: the binding result is recorded as “binds”.

Turning to B22, the binding result is listed as “binds”.

In the case of B23, the binding result is recorded as “binds”.

Consider B24, for which the binding result is reported as “binds”.

On to B25, for which the binding result is given as “binds”.

With B26, the binding result is listed as “binds”.

In the case of B27, the binding result is “binds”.

Turning to B28, the binding result was “binds”.

For B29, the binding result was “binds”.

In the case of B30, the binding result is on record as “binds”.

For B31, the binding result is “binds”.

Values taken from PMC8126837 (Proceedings of the National Academy of Sciences of the …, 2021).
